Positions count from the first letter of the chain named. Names and notes keep the numbering of the source. Values joined by “and” are separate entries in the source; they are usually repeats but may differ in a detail not shown here. Equal entries are not always repeated. Each block holds one binder with its values, some of them ahead of it.
What was measured:
[1] = target: CXCR1 (UniProt P25024); assay: cell-based or functional assay
[2] = target: Kv1.3 (human) (UniProt P22001); assay: cell-based or functional assay
Chain of Kv1.3 (human) (P22001 whole entry): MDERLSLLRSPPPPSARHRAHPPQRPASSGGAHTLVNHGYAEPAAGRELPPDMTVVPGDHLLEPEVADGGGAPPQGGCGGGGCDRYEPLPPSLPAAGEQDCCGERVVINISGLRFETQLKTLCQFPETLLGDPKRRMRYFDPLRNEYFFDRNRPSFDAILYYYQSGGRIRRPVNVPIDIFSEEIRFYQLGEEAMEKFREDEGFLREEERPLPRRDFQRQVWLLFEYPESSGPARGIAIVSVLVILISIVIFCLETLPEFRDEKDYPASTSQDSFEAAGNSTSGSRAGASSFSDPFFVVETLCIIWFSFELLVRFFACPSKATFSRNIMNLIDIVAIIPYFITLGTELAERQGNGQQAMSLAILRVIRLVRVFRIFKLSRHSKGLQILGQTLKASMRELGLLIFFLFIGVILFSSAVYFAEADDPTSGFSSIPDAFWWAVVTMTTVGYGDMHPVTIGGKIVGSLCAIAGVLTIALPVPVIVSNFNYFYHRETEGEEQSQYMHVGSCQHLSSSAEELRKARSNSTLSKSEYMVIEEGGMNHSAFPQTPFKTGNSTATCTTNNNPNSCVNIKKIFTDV

Chain of CXCR1 (P25024 whole entry): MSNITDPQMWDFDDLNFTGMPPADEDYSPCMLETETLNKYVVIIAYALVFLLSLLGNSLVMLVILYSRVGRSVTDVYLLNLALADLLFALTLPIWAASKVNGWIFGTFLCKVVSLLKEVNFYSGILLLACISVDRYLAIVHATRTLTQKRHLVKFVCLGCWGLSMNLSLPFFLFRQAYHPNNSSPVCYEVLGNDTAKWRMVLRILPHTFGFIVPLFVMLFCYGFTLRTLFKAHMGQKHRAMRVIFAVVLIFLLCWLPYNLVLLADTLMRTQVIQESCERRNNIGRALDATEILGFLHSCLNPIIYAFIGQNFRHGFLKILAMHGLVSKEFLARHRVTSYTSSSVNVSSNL

- luminescence at 0.1 nM IL-8 domains [1]: 4180
- luminescence at 0.4 nM IL-8 domains [1]: 5190
- luminescence at 0.5 nM IL-8 domains [1]: 6620
- luminescence at 1.6 nM IL-8 domains [1]: 6410
- luminescence at 2.2 nM IL-8 domains [1]: 13500
- luminescence at 6.25 nM IL-8 domains [1]: 10500
- luminescence at 9.9 nM IL-8 domains [1]: 21900
- luminescence at 25 nM IL-8 domains [1]: 14600
- luminescence at 44 nM IL-8 domains [1]: 24000
- luminescence at 100 nM IL-8 domains [1]: 18000
- luminescence at 200 nM IL-8 domains [1]: 25000
B1: VH4-34+CDR3-IL8_CDR1-Cow_Q5RQ6E with VL1-51 S2A, T5N, P8S, A12G, A13S, P14L, K46R, L47T, D51G, N52D, N53T (antibody)
VH: QVQLREWGAGLLKPSETLSLTCTASGFSLSDKAVGWIRQPPGKGLEWIGEINHSGSTNYNPSLKSRVTISVDTSKNQFSLKLSSVTAADTAVYYCTSVHQETKKYQSPRSAKELRCQCIKTYSKPFHPKFIKELRVIESGPHCANTEIIVKLSDGRELCLDPKENWVQRVVEKFLKRAENSGSGSYTYNYEWHVDVWGQGLLVTVSS
light: QAVLNQPSSVSGSLGQKVTISCSGSSSNIGNNYVSWYQQLPGTAPRTLIYGDTKRPSGIPDRFSGSKSGTSATLGITGLQTGDEADYYCASAEDSSSNAVFGSGTTLTVLGQPKAAPSVTLFPPSSEELQANKATLVCLISDFYPGAVTVAWKADSSPVKAGVETTTPSKQSNNKYAASSYLSLTPEQWKSHRSYSCQVTHEGSTVEKTVAPTECS

- luminescence at 0.4 nM IL-8 domains [1]: 6310
- luminescence at 1.6 nM IL-8 domains [1]: 7400
- luminescence at 6.25 nM IL-8 domains [1]: 10200
- luminescence at 25 nM IL-8 domains [1]: 15400
- luminescence at 100 nM IL-8 domains [1]: 21600
B2: VH4-34+CDR3-IL8_CDR1-Cow_CDR2-Cow with VL1-51 S2A, T5N, P8S, A12G, A13S, P14L, K46R, L47T, D51G, N52D, N53T (antibody)
VH: QVQLQQWGAGLLKPSETLSLTCTASGFSLSDKAVGWIRQPPGKGLEWLGSIDTGGNTGYNPSLKSRVTISVDTSKNQFSLKLSSVTAADTAVYYCTSVHQETKKYQSPRSAKELRCQCIKTYSKPFHPKFIKELRVIESGPHCANTEIIVKLSDGRELCLDPKENWVQRVVEKFLKRAENSGSGSYTYNYEWHVDVWGQGLLVTVSSAS
light: B1 light

- luminescence at 0.4 nM IL-8 domains [1]: 5420
- luminescence at 1.6 nM IL-8 domains [1]: 5710
- luminescence at 6.25 nM IL-8 domains [1]: 7160
- luminescence at 25 nM IL-8 domains [1]: 11200
- luminescence at 100 nM IL-8 domains [1]: 15500
B3: VH4-34+CDR3-IL8_CDR1-G31DY32K_CDR2-E50S with VL1-51 S2A, T5N, P8S, A12G, A13S, P14L, K46R, L47T, D51G, N52D, N53T (antibody)
VH: QVQLQQWGAGLLKPSETLSLTCAVYGGSFSDKYWSWIRQPPGKGLEWIGSINHSGSTNYNPSLKSRVTISVDTSKNQFSLKLSSVTAADTAVYYCTSVHQETKKYQSPRSAKELRCQCIKTYSKPFHPKFIKELRVIESGPHCANTEIIVKLSDGRELCLDPKENWVQRVVEKFLKRAENSGSGSYTYNYEWHVDVWGQGLLVTVSSAS
light: B1 light

- luminescence at 0.1 nM IL-8 domains [1]: 4060
- luminescence at 0.4 nM IL-8 domains [1]: 6190
- luminescence at 0.5 nM IL-8 domains [1]: 5300
- luminescence at 1.6 nM IL-8 domains [1]: 8160
- luminescence at 2.2 nM IL-8 domains [1]: 10300
- luminescence at 6.25 nM IL-8 domains [1]: 13500
- luminescence at 9.9 nM IL-8 domains [1]: 17100
- luminescence at 25 nM IL-8 domains [1]: 21000
- luminescence at 44 nM IL-8 domains [1]: 23300
- luminescence at 100 nM IL-8 domains [1]: 25900
- luminescence at 200 nM IL-8 domains [1]: 22300
B4: VH4-34+CDR3-IL8_CDR1-G31DY32K_CDR2-E50S_Q5RQ6E with VL1-51 S2A, T5N, P8S, A12G, A13S, P14L, K46R, L47T, D51G, N52D, N53T (antibody)
VH: B1 VH with T23A, A24V, S25Y, F27G, L29F, A33Y, V34W, G35S, E50S
light: B1 light

- IL-2 ELISA (A450), Donor 1, [IgG] 0.01 nM [2]: 2.18 A450 and 2.23 A450
- IL-2 ELISA (A450), Donor 1, [IgG] 0.75 nM [2]: 2.19 A450 and 2.17 A450
- IL-2 ELISA (A450), Donor 1, [IgG] 68 nM [2]: 1.42 A450 and 1.31 A450
- IL-2 ELISA (A450), Donor 2, [IgG] 0.01 nM [2]: 1.75 A450
- IL-2 ELISA (A450), Donor 2, [IgG] 0.75 nM [2]: 1.61 A450 and 1.42 A450
- IL-2 ELISA (A450), Donor 2, [IgG] 68 nM [2]: 1.32 A450 and 0.934 A450
- IL-17 ELISA (A450), Donor 1, 0.00 nM IgG [2]: 0 A450
- IL-17 ELISA (A450), Donor 1, 0.02 nM IgG [2]: 1.35 A450
- IL-17 ELISA (A450), Donor 1, 0.08 nM IgG [2]: 1.34 A450
- IL-17 ELISA (A450), Donor 1, 0.34 nM IgG [2]: 1.27 A450
- IL-17 ELISA (A450), Donor 1, 1.54 nM IgG [2]: 1.18 A450
- IL-17 ELISA (A450), Donor 1, 6.9 nM IgG [2]: 0.828 A450
- IL-17 ELISA (A450), Donor 1, 31 nM IgG [2]: 0.453 A450
- IL-17 ELISA (A450), Donor 1, 140 nM IgG [2]: 0.247 A450
- IL-17 ELISA (A450), Donor 2, 0.00 nM IgG [2]: 0 A450
- IL-17 ELISA (A450), Donor 2, 0.02 nM IgG [2]: 0.959 A450
- IL-17 ELISA (A450), Donor 2, 0.08 nM IgG [2]: 0.777 A450
- IL-17 ELISA (A450), Donor 2, 0.34 nM IgG [2]: 0.82 A450
- IL-17 ELISA (A450), Donor 2, 1.54 nM IgG [2]: 0.785 A450
- IL-17 ELISA (A450), Donor 2, 6.9 nM IgG [2]: 0.641 A450
- IL-17 ELISA (A450), Donor 2, 31 nM IgG [2]: 0.364 A450
- IL-17 ELISA (A450), Donor 2, 140 nM IgG [2]: 0.096 A450
- TNF-α ELISA (A450), Donor 1, 0.00 nM IgG [2]: 0 A450
- TNF-α ELISA (A450), Donor 1, 0.02 nM IgG [2]: 1.52 A450
- TNF-α ELISA (A450), Donor 1, 0.08 nM IgG [2]: 1.45 A450
- TNF-α ELISA (A450), Donor 1, 0.34 nM IgG [2]: 1.42 A450
- TNF-α ELISA (A450), Donor 1, 1.54 nM IgG [2]: 1.33 A450
- TNF-α ELISA (A450), Donor 1, 6.9 nM IgG [2]: 1.1 A450
- TNF-α ELISA (A450), Donor 1, 31 nM IgG [2]: 0.808 A450
- TNF-α ELISA (A450), Donor 1, 140 nM IgG [2]: 0.402 A450
- TNF-α ELISA (A450), Donor 1, [IgG] 0.01 nM [2]: 1.91 A450 and 1.88 A450
- TNF-α ELISA (A450), Donor 1, [IgG] 0.75 nM [2]: 1.76 A450 and 1.67 A450
- TNF-α ELISA (A450), Donor 1, [IgG] 68 nM [2]: 1.12 A450 and 1.08 A450
- TNF-α ELISA (A450), Donor 2, 0.00 nM IgG [2]: 0 A450
- TNF-α ELISA (A450), Donor 2, 0.02 nM IgG [2]: 1.56 A450
- TNF-α ELISA (A450), Donor 2, 0.08 nM IgG [2]: 1.42 A450
- TNF-α ELISA (A450), Donor 2, 0.34 nM IgG [2]: 1.55 A450
- TNF-α ELISA (A450), Donor 2, 1.54 nM IgG [2]: 1.29 A450
- TNF-α ELISA (A450), Donor 2, 6.9 nM IgG [2]: 0.916 A450
- TNF-α ELISA (A450), Donor 2, 31 nM IgG [2]: 0.438 A450
- TNF-α ELISA (A450), Donor 2, 140 nM IgG [2]: 0.167 A450
- TNF-α ELISA (A450), Donor 2, [IgG] 0.01 nM [2]: 2.23 A450 and 2.1 A450
- TNF-α ELISA (A450), Donor 2, [IgG] 0.75 nM [2]: 2.1 A450 and 1.88 A450
- TNF-α ELISA (A450), Donor 2, [IgG] 68 nM [2]: 1.8 A450 and 1.32 A450
B5: VH4-34 MutE 3xGGS NoKnob IgG (antibody, V domains shown)
VH: QVQLREWGAGLLKPSETLSLTCAVYGGSFSDKYWSWIRQPPGKGLEWIGSINHSGSTNYNPSLKSRVTISVDTSKNQFSLKLSSVTAADTAVYYCTSVHQETKKYQSGGSGGSGGSSYTYNYEWHVDVWGQGLLVTVSS
VL: QAVLNQPSSVSGSLGQKVTISCSGSSSNIGNNYVSWYQQLPGTAPRTLIYGDTKRPSGIPDRFSGSKSGTSATLGITGLQTGDEADYYCASAEDSSSNAVFGSGTTLTVLG

- IL-2 ELISA (A450); Donor 1; 0.04 nM IgG [2]: 0.333 A450
- IL-2 ELISA (A450); Donor 1; 0.6 nM IgG [2]: 0.356 A450
- IL-2 ELISA (A450); Donor 1; 9.4 nM IgG [2]: 0.371 A450
- IL-2 ELISA (A450); Donor 1; 150 nM IgG [2]: 0.232 A450
- IL-2 ELISA (A450); Donor 2; 0.04 nM IgG [2]: 0.976 A450
- IL-2 ELISA (A450); Donor 2; 0.6 nM IgG [2]: 0.795 A450
- IL-2 ELISA (A450); Donor 2; 9.4 nM IgG [2]: 0.808 A450
- IL-2 ELISA (A450); Donor 2; 150 nM IgG [2]: 0.475 A450
- TNF-α ELISA (A450); Donor 1; 0.04 nM IgG [2]: 0.76 A450
- TNF-α ELISA (A450); Donor 1; 0.6 nM IgG [2]: 0.813 A450
- TNF-α ELISA (A450); Donor 1; 9.4 nM IgG [2]: 0.821 A450
- TNF-α ELISA (A450); Donor 1; 150 nM IgG [2]: 0.599 A450
- TNF-α ELISA (A450); Donor 2; 0.04 nM IgG [2]: 0.736 A450
- TNF-α ELISA (A450); Donor 2; 0.6 nM IgG [2]: 0.631 A450
- TNF-α ELISA (A450); Donor 2; 9.4 nM IgG [2]: 0.622 A450
- TNF-α ELISA (A450); Donor 2; 150 nM IgG [2]: 0.366 A450
B6: VH4-34 MutE 3xGGS NoKnob (antibody, V domains shown)
VH: B5 VH
VL: B5 VL

Source: US20160159928A1
